The values below come from patent EP2243792A1 (Spiber Technologies AB, dated 2010).

Data set [1] deals with NT, N-terminal domain of major ampullate spidroin (MaSp) 1 from Euprosthenops australis (Euprosthenops australis). Description: self-association; DLS, 100 mM phosphate buffer, pH 6.2.
For data set [2] the target is unchanged. Description: self-association; DLS, 100 mM phosphate buffer, pH 7.2.
The target is the same in data set [3]. Nature of the data set: self-association; DLS, 10 mM phosphate buffer, pH 7.2.
Data set [4] has the same target. Nature of the data set: self-association; DLS, 10 mM phosphate buffer + 300 mM NaCl, pH 7.2.
The target is the same in data set [5]. Description: self-association; DLS, 10 mM phosphate buffer + 150 mM NaCl, pH 7.2.
For data set [6] the target is unchanged. Nature of the data set: self-association; DLS, 10 mM phosphate buffer + 300 mM NaCl, pH 6.2.
For data set [7] the target is unchanged. Description: self-association; DLS, 10 mM phosphate buffer, pH 6.0.
Data set [8] shares this target. Description: self-association; DLS, 10 mM phosphate buffer + 150 mM NaCl, pH 6.1.
Data set [9] deals with the molecule itself. Description: self-association; polymerisation at pH 6, macroscopic formations and SEM.
Data set [10] concerns the molecule itself. Nature of the data set: self-association; turbidimetry at different pH values.

B1: NT, N-terminal domain of major ampullate spidroin (MaSp) 1 from Euprosthenops australis (protein)
chain: GSGNSHTTPWTNPGLAENFMNSFMQGLSSMPGFTASQLDDMSTIAQSMVQSIQSLAAQGRTSPNKLQALNMAFASSMAEIAASEEGGGSLSTKTSSIASAMSNAFLQTTGVVNQPFINEITQLVSMFAQAGMNDVSA
In the case of B1, the % particles in data set [1] was 99.9%; in data set [2] it was 99.9%; in data set [3], 99.8%; in data set [4], 99.9%; in data set [5], 99.9%; in data set [6] it was 99.9%. In addition, the % particles in data set [7] is 100%; in [8], 96.8%. Further, the Size (nm) is 4.2 nm in data set [1]; 4.2 nm in [2]; 4.5 nm in data set [3]; 4.3 nm in data set [4]; 4.1 nm in [5]; 4.4 nm in [6]. The Size (nm) in data set [7] was 687 nm; in data set [8], 710 nm.

B2: NT4RepCT (other)
chain: MKASHTTPWTNPGLAENFMNSFMQGLSSMPGFTASQLDDMSTIAQSMVQSIQSLAAQGRTSPNKLQALNMAFASSMAEIAASEEGGGSLSTKTSSIASAMSNAFLQTTGVVNQPFINEITQLVSMFAQAGMNDVSASASAGASAAASAGAASGQGGYGGLGQGGYGQGAGSSAAAAAAAAAAAAGGQGGQGQGGYGQGSGGSAAAAAAAAAAAAAAAGRGQGGYGQGSGGNAAAAAAAAAAAAAAAGQGGQGGYGRQSQGAGSAAAAAAAAAAAAAAGSGQGGYGGQGQGGYGQSSASASAAASAASTVANSVSRLSSPSAVSRVSSAVSSLVSNGQVNMAALPNIISNISSSVSASAPGASGCEVIVQALLEVITALVQIVSSSSVGYINPSAVNQITNVVANAMAQVMGKLAAALEHHHHHH
notes: Non-natural minispidroin: NT, repetitive fragment and C-terminal domain; Made as an N-terminal fusion to His6; also called NT4RepCTHis; minispidroin NT4RepCT
Turning to B2, in data set [9], the binding result is “binds”.

B3: NT5Rep (other)
chain: GSGNSHTTPWTNPGLAENFMNSFMQGLSSMPGFTASQLDDMSTIAQSMVQSIQSLAAQGRTSPNKLQALNMAFASSMAEIAASEEGGGSLSTKTSSIASAMSNAFLQTTGVVNQPFINEITQLVSMFAQAGMNDVSASASAGASAAASAGAPGYSPAPSYSSGGYASSAASAAAAAGQGGPGGYGPAPNQGASSAAAAAAGSGQGPSGPYGTSYQISTQYTQTTTSQGQGYGSSSAGAAAAGAAGAGQGGYGGQGQGGYGQGAGGAAAAAAAAAAAAAAAGQGGQGGGGYGQGGQGGQGGQGQGGYGQGAGSSAAAAAAAAAAAAAAGRGQGGYGPGSGG
notes: Non-natural minispidroin; Made as a C-terminal fusion to His6TrxHis6, tag removed
Consider B3, for which, in [10], the binding result is reported as “binds”.

B4: NT4Rep (other)
chain: GSGNSHTTPWTNPGLAENFMNSFMQGLSSMPGFTASQLDDMSTIAQSMVQSIQSLAAQGRTSPNKLQALNMAFASSMAEIAASEEGGGSLSTKTSSIASAMSNAFLQTTGVVNQPFINEITQLVSMFAQAGMNDVSASASAGASAAASAGAASGQGGYGGLGQGGYGQGAGSSAAAAAAAAAAAAGGQGGQGQGGYGQGSGGSAAAAAAAAAAAAAAAGRGQGGYGQGSGGNAAAAAAAAAAAAAAAGQGGQGGYGRQSQGAGSAAAAAAAAAAAAAAGSGQGGYGGQGQGGYGQS
notes: Non-natural minispidroin: NT domain plus a repetitive fragment derived from E. australis MaSp1; Made as a C-terminal fusion to His6TrxHis6, tag removed; also called minispidroin NT4Rep
Consider B4, for which, in [9], the binding result is listed as “binds”.
